Laboratory results reported in patent publication US20240043859A1, “HERBICIDE-RESISTANT PROTEIN, AND GENE AND USE THEREOF” (QINGDAO KINGAGROOT CHEMICAL COMPOUND CO., LTD., priority 2020, published 2024).
“Also recorded” adds a separate entry of the source.

How the values were obtained:
[1] = test system: Arabidopsis thaliana; assay: Herbicide resistance of transgenic Arabidopsis thaliana seedlings on plate medium (root growth); type: in vivo; details: Arabidopsis overexpressing the gene
Procedure, shortened: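 After 3 days of cold treatment at 4 °C, seeds were cultured at 22 °C under a 16 h/8 h light cycle on MS herbicide medium (0.3 μM 2,4-D in the screen). Root growth was scored against wild-type seedlings at one week. The material was T2 AAD-overexpressing lines (AtUbi10 promoter, MAS terminator, hygromycin marker), two events each, tested with 2,4-D, 2,4-DB sodium and MCPA.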

[2] = test system: maize B104; assay: Herbicide-resistance capacity testing of transgenic maize (spray); type: in vivo; details: 2,4-D 4.48 kg/ha foliage spray, 14 days / 15 days after spraying
Source text: 1. Vector construction: the overexpression vector was altered from pCambia3300, containing a Bar resistance gene that can be used as a selection marker for bialaphos (glufosinate). The AAD-like gene, QYD42, SEQ ID NO. 83, was linked to the pCambia3300 at the BamH I restriction site by seamless cloning to construct the transgenic vector pQY2329, of which the expression cassette consisted of a maize ubiquitin-1 promoter, the AAD gene and a Nos terminator, as shown in FIG. 7-1.
2. Genetic transformation of maizes: Maize transformation was carried out by the Agrobacterium-mediated immature embryo transformation method (Jones T, Lowe K, Hoerster G, et al. Maize Transformation Using the Morphogenic Genes Baby Boom and Wuschel2. Methods Mol Biol. 2019; 1864:81-93. Doi: 10.1007/978-1-4939-8778-8 6). The Agrobacterium (EHA105) comprising the pQY2329 overexpression vector was inoculated into YEP liquid medium (containing 25 mg/L Rifampicin and 50 mg/L Kanamycin), and shaking-cultured a t 28° C., 220 rmp/min overnight until the OD600 was about 1.0-1.5, then centrifuged at 6000 rmp/min for 10 min to collect the cells into a 50 ml centrifuge tube (sterilized). After discarding the supernatant, the cells were resuspended using MS infect culture medium (containing 68.5 g/L sucrose, 36 g/L glucose, pH 5.8) to OD550=0.8. […]

B1: QYD42: AAD-like enzyme, SEQ ID NO. 83; expressed from vectors pQY2309 (Arabidopsis), pQY2329 (maize), pQY2330 (soybean) (protein)
chain: MQITPIADATFGATVTGLRLATLDDAGFARLHAAWLQHALLVFPGQFLTNAEQIGFAKRFGPIERIGGGDIVAISNVKADGTVRQHSPAEWDDMMKVIVGNMAWHADSTYMPVMAQGAVFSAEVVPPTGGRTCFADMRAAYDALDDATRALVHQRSARHSLVYSQSKLGHVQQAGSAYVGYGMDTTATPLRPLVKRHPETGRLSLLIGRHAHAIPGLEEAESERFLEDLVAWACQPPRVVAHHWTAGDVVLWDNRCLLHRAEPWDFTLPRVMWHSRLAGHPETEAAPLV
modifications: Synthetic polypeptide, QYD42, D42
[1]
  Resistance of transgenic Arabidopsis thaliana: 2,4-D: Yes
  Resistance of transgenic Arabidopsis thaliana: MCPA: Yes
[2]
  Resistance of T1 transgenic maize to 2,4-D (spray): grew normally without any growth inhibition; also recorded: no apparent deformity
